Experimental data: US7053179 (WHITEHEAD INSTITUTE FOR BIOMEDICAL RESEARCH, dated 2006)

Target: gp160 (precursor protein to gp120/gp41) expressed on CHO cells (HIV (strain ))
Assay: cell-based or functional assay

B1: His-tagged C-peptide C37-H6 (peptide)
peptide: GGHTTWMEWDREINNYTSLIHSLIEESQNQQEKNEQELLGGHHHHHH
  IC50 in the cell-cell fusion assay: ~1 nM
